Target: TSLP (M29-130), longer subunit of the PCSK-generated heterodimeric TSLP (human, UniProt Q969D9 29-130)
Test: MALDI-TOF MS with and without DTT

binding result: binds
Binder: KVTTNKCLEQVSQLQGLWRRFNRPLLKQQ (peptide, UniProt Q969D9 131-159, looked up) [TSLP (131-159), shorter subunit of the truncated thymic stromal lymphopoietin]
